Source: publication PMC4004597 (Molecular Biology of the Cell, 2014)

T1: R. norvegicus Nup54 of the published Nup58-Nup54 crystal construct (aa 456–494) (R. norvegicus, UniProt P70582 456-494)
T1 chain: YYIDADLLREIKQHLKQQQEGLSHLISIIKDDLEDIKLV

T2: R. norvegicus Nup62 (aa 322–525), entire predicted α-helical part (R. norvegicus, UniProt P17955 322-525)
T2 sequence: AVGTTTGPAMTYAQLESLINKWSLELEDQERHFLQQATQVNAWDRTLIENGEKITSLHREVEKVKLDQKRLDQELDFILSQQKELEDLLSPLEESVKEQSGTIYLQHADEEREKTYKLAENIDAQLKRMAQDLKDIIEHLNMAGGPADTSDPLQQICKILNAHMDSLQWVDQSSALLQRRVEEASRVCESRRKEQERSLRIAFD

B1: R. norvegicus Nup58 (aa 327–415), N-terminally truncated (domain or fragment)
chain: APADYFRVLVQQFEVQLQQYRQQIEELENHLATQANNSHITPQDLSMAMQKIYQTFVALAAQLQSIHENVKVLKEQYLSYRKMFLGDAG
B2: R. norvegicus Nup58 (aa 239–415), entire predicted α-helical part (domain or fragment)
chain: not shown
B3: R. norvegicus Nup58 of the published Nup58-Nup54 crystal construct (aa 327–412) (domain or fragment)
chain: APADYFRVLVQQFEVQLQQYRQQIEELENHLATQANNSHITPQDLSMAMQKIYQTFVALAAQLQSIHENVKVLKEQYLSYRKMFLG
B4: long rnNup58-Nup54-Nup62 complex (complex)
chain 1: not shown
chain 2: MTKQHQTRLDIISEDISELQKNQTTTMAKIAQYKRKLMDLSHRTLQVLIKQEIQRKSGYAIQAEEEQLRVQLDTIQGELNAPTQFKGRLNELMSQIRMQNHFGAVKSEEKYYIDADLLREIKQHLKQQQEGLSHLISIIKDDLEDIKLV
chain 3: T2 sequence
B5: R. norvegicus Nup54 (aa 346–494), entire predicted α-helical part (domain or fragment)
chain: B4 chain 2
B6: short rnNup58-Nup54-Nup62 complex (complex)
chain 1: B1 chain
chain 2: B4 chain 2
chain 3: T2 sequence

Assays:
[1] = target: B5; assay: SEC
[2] = target: T1, R. norvegicus Nup54 of the published …; assay: AUC
AUC = target: the molecule itself; assay: AUC
[3] = target: T2, R. norvegicus Nup62 (aa 322–525), …; assay: SEC

| Binder | stoichiometry N [1] | Kd (AUC) | other results |
| --- | --- | --- | --- |
| B1 | 1 |  |  |
| B2 | 1 |  |  |
| B3 |  |  | stoichiometry N [2]: 2 Nup58:Nup54 |
| B4 |  | 52 µM |  |
| B5 |  |  | stoichiometry N [3]: 1 |
| B6 |  | 49.3 µM |  |
